Experimental data as given in paper PMC12568027.

Molecular target: HIV-2 GL-AN CA P14C/E45C/W184A/M185A (HIV-2 GL-AN)

## HIV-2 GL-AN CA P14C/E45C/W184A/M185A (natural protein)
  stoichiometry N: 6
